Measured values taken from the supplement of paper PMC10567573.

B1: GNAI1 (parent)
chain: WIHCFEGVTAIIFCVALSDYDLVL
B2: PDS5B (parent)
chain: ITYPPGVKEISDKISKEEMVRRLK
B3: EPB41L3 (parent)
chain: SMQCKVILLDGSEYTCDVEKRSRG

Variants of: B1
Assay: protein stability index of a GFP-peptide fusion (GPS, HEK-293T) (PSI 1-6); higher = more stable
Settings: c terminus: a fixed tail appended
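Note: lentivirally expressed fusions sorted by FACS into six bins by GFP to DsRed ratio, PSI derived from sequencing read proportions per bin multiplied by bin number.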

Protein stability index: each site, then its substitutions
C4: Q 3.17 | T 2.39 | N 3.76 | W 4.22 | R 2.97 | E 2.83 | H 2.22 | S 3.29 | M 2.25 | Y 2.43 | P 2.69 | F 2.8 | G 3.37 | K 3.1
L17: A 3.93 | R 2.51 | P 3.56 | K 2.55 | W 3.09 | T 2.04 | D 3.5 | H 2.71 | Q 3.55 | Y 2.83 | V 3.19 | N 2.67 | E 3.42 | F 4.72
I2: D 2.21 | G 1.7 | Y 3.56 | S 2.82 | E 3.25 | A 2.9 | F 1.63 | T 2.12 | Q 3.22 | L 1.83 | H 2.9 | R 2.34
F13: Q 3.46 | E 1.84 | T 2.07 | C 2.64 | N 2.17 | S 2.34 | K 4.12 | G 2.34 | I 4.07 | P 2.43 | V 2.83
W1: K 3.4 | A 3.11 | G 2.14 | N 2.99 | I 4.21 | Q 1.72 | F 2.29 | M 2.91 | P 3.51 | T 2.32 | S 1.5 | Y 3.22 | L 3.13 | V 3.35 | H 3.09 | D 3.44 | E 2.82
L24: R 3.04 | Q 1.69 | E 1.42 | P 2.78 | W 1.92 | F 2.34 | V 2.12 | N 4.75 | G 3.06 | M 2.29 | K 3.06 | D 2.92 | I 3.87 | A 1.85 | T 3.34 | H 3.37
D21: I 3.09 | F 4.12 | T 4.09 | R 2.59 | M 2.88 | N 3.81 | G 2.37 | L 2.81 | E 4.04 | K 3.74 | A 3.49 | S 2.76 | C 3.01 | W 2.27 | Y 2.41
F5: P 3.42 | K 2.11 | M 2.91 | D 2.6 | N 2.79 | Q 2.79 | T 2.87 | C 1.78 | A 3.47 | S 2.75 | H 3.07 | I 3.65
V23: F 2.29 | S 2.21 | R 2.89 | K 3.57 | T 3.6 | I 2.7 | N 3.29 | H 4 | E 2.71 | C 1.55 | P 2.28 | Y 3.15
V8: K 1.95 | M 2.09 | Y 2.2 | I 3.14 | G 1.82 | A 2.56 | Q 3.32 | F 3.11 | P 2.99 | C 3.33 | N 2.3 | L 2.78 | S 1.65 | D 2.79 | R 3.63
L22: P 1.98 | F 2.5 | K 3.61 | N 1.85 | Y 2.52 | V 4.39 | C 1.87 | W 3.57 | M 2.77 | Q 3.71 | D 3.04 | H 1.34 | A 1.82 | S 3.61
C14: N 2.56 | Q 2.43 | L 1.8 | Y 3.37 | M 1.93 | R 4.07 | P 2.46 | I 3.89 | T 4.02 | G 2.52 | A 1.32 | D 4.12 | F 3.23 | H 2.66 | S 3.26
Y20: C 2.61 | V 2.86 | M 1.56 | G 2.45 | I 3.91 | D 3.02 | L 3.28 | N 3.6 | Q 4.16 | T 4.04 | S 2.35 | A 3 | K 2.02 | E 2.71 | F 3.7 | R 2.75
V15: C 3.06 | Q 3.42 | K 3.22 | F 3.93 | P 3.22 | N 3.17 | H 3.01 | D 2.61 | I 3.06 | M 1.77 | Y 3.25 | T 2.03
I12: N 2.9 | Y 3.14 | P 4.32 | F 3.41 | T 1.79 | H 1.71 | Q 1 | W 2.95 | R 5.41 | L 3.2 | E 4.44 | K 1.93 | S 2.84
H3: D 3.95 | Y 3.39 | F 1.75 | E 3.35 | V 2.98 | T 3.21 | I 2.8 | N 3.58 | C 1.69 | K 3.35
G7: Y 2.62 | L 2.54 | T 2.51 | C 4.35 | E 3.19 | H 2.92 | P 5.18 | I 4.42 | S 2.44 | M 1.99 | D 3.39 | Q 2.28 | R 2.02
S18: W 2.62 | F 1.9 | Q 4.04 | E 4.41 | T 2.95 | I 4.92 | A 1.86 | D 2.67 | P 2.3 | V 2.2 | L 4.7 | N 2.34
D19: F 3.69 | A 2.02 | T 4.11 | H 2.87 | S 2.77 | V 3.39 | L 2.58 | I 1.44 | Y 3.06 | C 3.67 | P 3.43 | G 3.1 | E 3.67 | M 1.58 | K 3.29 | Q 2.96
A10: D 1.51 | G 2.08 | S 1.82 | C 4.03 | N 3.19 | T 2.48 | I 1.8 | Q 2.09 | Y 2.76 | F 2.31 | L 4.17 | K 2.31 | W 2.06
I11: D 3.47 | V 3.49 | C 3.28 | Q 1.86 | H 3.5 | T 1.61 | K 3.52 | E 2.67 | A 1.48 | N 3.83 | F 3.26 | P 2.79 | M 3.01 | Y 3.17 | S 4.32
A16: L 3.16 | S 3.92 | K 4.07 | D 2.96 | Q 2.56 | Y 4.61 | V 1.64 | H 1.78 | T 3.18 | G 3.14 | N 2.25 | M 2.41
E6: R 3.24 | T 2.2 | A 2.75 | L 4.47 | D 2.74 | Y 2.48 | K 1.26 | Q 1.76 | F 1.87 | G 2.32 | M 2.6 | I 3.12 | V 2.97 | C 1.95 | N 3.63
T9: I 4.15 | G 2.84 | F 3.82 | H 3.23 | A 2.01 | K 2.17 | W 3.23 | D 3.05 | S 2 | Q 2.66 | Y 2.83 | C 2.57 | R 2.51

Variants of: B2
Assay: as above
Settings: c terminus: a fixed tail appended

Protein stability index of substitutions, site by site:
I1: A 5.15 | C 4.63

Variants of: B3
Assay: as above
Settings: c terminus: a fixed tail appended

Protein stability index, by site and new letter:
G24: W 2.88 | S 3.48 | Y 2.25 | V 2.83 | T 3.25
